Experiment: yeast display, Sf9 membrane polyspecificity reagent, FACS + sequencing; frameworks hold sequencing errors
Summary of the method: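 Synthetic nanobody libraries on Saccharomyces cerevisiae BJ5465 were galactose-induced for 36–48 hours, stained 1 hour at 4 °C with 10% biotinylated, detergent-solubilized Sf9 membrane reagent and enriched on streptavidin microbeads. FACS then separated cells into low and high (top ~1%) gates by anti-HA (expression) and streptavidin (reagent binding) fluorescence. Genes were colony-PCR amplified, MiSeq 2 × 250 sequenced and CDR-length filtered. A clone's polyreactivity label is that of its gate of origin.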

| Sequence | polyreactivity (PSR sort gate) |
| --- | --- |
| QVQLVESGGGLVQAGGSLRLSCAASGSTFGWYAMGWYRQAPGKERELVATISTTGGRTYYADSVKGRFTISRDNAKNTVYLQMNSLKPEDTAVYYCAARAFYKRYFAFDYWGQGTQVTVSS | high polyreactivity |
| QVQLEESGGGLVQAGGSLRLSCAASGSIFSAYFMVWYRQAPGKERELVAAINRGGNTYYADSVKGRFTISRDNANITVYLQMNSLKPEDTAVYYCNAQWYYLRYRYDYWGQGTQVTVSS | high polyreactivity |
| QVQLVESGGGLVQAGGSLRLSCAASGRNFGSYAMGWSRQAPGKERELVAGIRSVGSTNYADSVKGRFTISRDNAKNTVYLQMNSLKPEDTAVYYCAARLWHLSYAGQGGDYWGQGTQVTVSS | low polyreactivity |
| QVQLVESGGGLVQAGGSLRLSCAASGRIFYRYTMGWYRQAPGKERELVAAITRGGNTYYADSVKGRFTISRDNAKNTVYLQMNSLKPEDTAVYYCAKKAPSDRNNYWGQGTQVTVSS | high polyreactivity |
| QVQLVETGGGLVQAGGSLRITCAASGSIFSYYDMGLNRQAPGNEREMVAAFSWDGGDRTYADSVKGRFTISRDIAKNTVYLQMNSLKPEDSAVYYCAKNTGSYRRVNLDYWGQGTQVTVSS | low polyreactivity |
| QVQLVDSGGGLVQAGGSLRLSCAASGYTLDGNAMGWYRQAPGKQREFVAAITIRGGGTYYADSVKGRFTISRDNAKNTDYVQMNSLKPEDSAVYYCNADTYDPFPWGSDYWGQGTQVTVSS | high polyreactivity |
| QVQLVESGGGLVQAGGSLRLTCAASGSTFTAYAMGWYRQAPGKERELVADISDSGGSTYYADSVKGRFTISRDNAKNTVYLQMNSLIPEDTAVYYCAVDVRAYVVSKFDSWGQGTQVTVSS | low polyreactivity |
| QVQLVESGGGLVQAGGSLRLSCAASGRIFQRYTMGWYRQAPGKEREFVAAITYSGGSTHYADSVKRRFTISRDNAKYTVYLQMNSLKPEDTAVYSCNARTSVLHDYWGQGTQVTVSS | low polyreactivity |
| QVQLVETGGGIVQAGGSLRLSSAASGRIFASNAMGWYRQAPGKERELVAAIDQCGGSTYYADSVKGRFTISRDNAKNTVYLQMNSLKPEDTAVYYCAADYITAYPRLYNYWGQGTQVTVSS | low polyreactivity |
| QVQLVESGGGLVQAGGSLRLSCDASGRTFLTNTMGWYRQAPGKERELVAAISSGGSTKYADSVKGRFTISRDNAKNTVYLQMNSLKPEDNAVYYCAATGWRYGYKYYYWGQGTQVTVSS | high polyreactivity |
| QVHLVESGGGIVQAGLSLRLSCAASGRTFVVNAMGWYRQAPGKERELVAAISYSGGRTYYADSVKGRFTISRDIAKNTVYLKMNSLKPEDTAVYYCAAQSRYGGKFYYWGQGTQVTVSS | high polyreactivity |
| QVQHVESGGGLVQAGGRLRLTCPASGSTVGYYAMGWYRQAPGKEREFVATITFGGSTHYADSVKGRFTISRDNAKYTVYLQMNSLKPEDTAFYYCAKRYYTNRHSRAFGYWGQGTQVTVSS | high polyreactivity |
| QVQLVESGGGLVQAGGSLRLSCAASGSIFPWYVMGWYRQAPGKERELVAAISWNGGITYADSVKGRFTISRDNAKNTVYLQMNSLKPEDTGVYYCAAYYITYSYIEYDYWGQGTQVSVSS | high polyreactivity |
| QVQLVESGGGLVQAGGSLRLSCAASGRTFIGYAMGWYIQAPGKERELVAAISPGGSTKYADSVKGRFTISRDNAKNTVYLQMNILKPEDTAVYYCNAYSQSWNFYGDGDYWGQGTQVTVSS | low polyreactivity |
| QVQLVESGGGLVQAGGSLRLSCAASGSIFWWYAMGWYRPAPGKERELVAAISGRGGNTYYADSVKGRFTISRDNAKNTVYLQMNSLKPEDTAVYYCNADDTKYPYYTDDYWGQGTQVTVSS | low polyreactivity |
| QVQLVESGGGLVQAGGSLRLSCAFYYGMGWYRQAPGKERELVAAITLGGGSTYYADSVKGRFTISRDNAKNTVYLQMNSLKPEDTAVYYCNVTDVTEPSLIDGYYWGQGTQVTVSS | low polyreactivity |

| Sequence | polyreactivity (PSR sort gate) |
| --- | --- |
| QFQLVESGGGLVQARGSLRLSCAPSGSTFGYYTMGWYRQAPGKERELVAAISWSGGSTYYADSVKGRFTISRDNAKNTVYLQMNSLKPEDTAVYYCAALGYTYKYYSYYWGQGTQVTVSS | high polyreactivity |
| QVQLVESGGGLVQAGGSLRLSCSASGYTFAWYAMGWYRQAPGKERELVAAITVSGGSTYYADSVKGRFTISRDNAKNTVYLQMNSLKPEDTAVYYCAADYAPLDLYQVSTVYSSGDYWGQGTQVTVSS | low polyreactivity |
| QVQLVESGGGLVQAGGSLRLSCAASGSIFPVYTMGWYRQAPGKERELVADIDSGGSTNYADSVKGRFTISRDNAKNTVYLQMNSLKPEVTAVYDCAADYYYYFYSLYIDPYAFDYWGLGTQVTVSS | low polyreactivity |
| QFQLVESGGGLDQAGGSLRLSCAASGLIFSTYSMGLYIQARGKETELVAAISGTGSTYYADSVKGRFTISRDNAKNTVYLQMNSLKPEDTAVYYCNADTYYAGRRYDYWGQGTQVTVSS | low polyreactivity |
| QVQLVESGGGLVQAGGSLRLSCAASGSIIHYTMGWYRQAPGKERELVAAISKSGGSTYYADSVKGRFTISRDNAKNTVYLQMNSLKPEDTAVYYCAAVGYYAWTFGYDYWGQGTQVTVSS | high polyreactivity |
| QVQLVESGGGLVQAGGSLRLSCAASGGIFDGNAMGWYRQAPGKERELVAAISSGGITKYADSEKGRFTISRDNAKNTVYLQMNSLKPEDTAVYYCAASWYRYRFIRYDYWGQGTQVTVSS | high polyreactivity |
| QVQLVESGGGLVQAGGSLRLSCAASGFTFGYYAMGWYRQAPGKERELVAAINWSGGRTYYADSVKGRFTISRDNAMNTVYLQMNRLKPEDTAVYYCAASSRTKRYYWGQGTQVTVSS | high polyreactivity |
| QVQLVESGGGLVQAGGSLRLSCAASGRIFGLYTMGWYRQAPGKERELVAAITSRGGRTYYADSVKGRFTLSRDNAKNSVYLQMNSLKPEDTAVYYCAAGGYWSLKYDYWGQGTQVTVSS | high polyreactivity |
| QVQLVESGGGLVQAGGSLRLTCAASGLIFYDNMGWYRQEPGKQRELVAAITVSGGATYYADSVKGRFTISRDNAKNTVYLQMNSLKTEDTAVFYCARELLSPTYQRWYYYWGQGTQVTVSS | low polyreactivity |
| QVQLVESGGGLVQAGGSLRLSCAASGLIFVGNAMGWYRQAPGKERELVAAISASTDNTYYADSVKGRFTISRDNAKNTVYLQMISLKPEDTAVYYCNAEQSRNSGKHDYWGQGTQVTVSS | low polyreactivity |
| QVQLVESRGGLVQAGGSLRLSSAASGSTYGVNPMGWYRQAPGKERELVAAISVSGGRTYYADSVKGRFTISRDNAKNTVDLQMNSLKPEDTAVYYCNADGLYAYVWYDYWGQGTQVSVSS | low polyreactivity |
| QVQLVESRGGLVQAGGSLRLSCAASGSILVRYAMGWDRQAPGKERELVAAITGTSGGTYYADSVKGRFTISRDNAKNTVYLQMNSLKPEDTAVYYCNADGGSGAYLDLTITDYDYWGQGTQVTVSS | low polyreactivity |
| QDQHVESGGGLVQAGGSLRLSCAASGYILRCNTMGWSRKAPGKERELVAAISSRGGITNYADSVKGRFTFSRDNAKNTVYLQMNSRKPEDTAVYYCATYWQYRYDYWGQGTQVTVSS | low polyreactivity |
| QVQLVESGGGLVQAGGSLRLSCGASGRIISKYAMGWYRQAPGKERELVAAITSRGGNTYYAVSVKGRFTISRDNAKNTVYFQMYSLNPEDTAVYSCNTSPQSRYVFGRVDSWGQGTQVTVSS | high polyreactivity |
| QVQLVESGGGLVQAGGSLRLSCAASGYTFAYYTMGWYRQAPGKERELVAAINRSGGSTNYADSVKGRFTISRDNAKNTVYLQMNSLKPEDTAVYYCAADYFFRRGPGAVFIGRYGYWGQGTQVTVSS | high polyreactivity |
| QVQLVESGGGLVQAGGSLRLSCAASGRIFNSYAMGWYRQAPGKERELVAAISSGGSTYYADSVKGRFTFSRDNAKNTVYLQMNSLKPEDTAVYYCADRIWTGRGRKLGYGYDYWGQGTQVTVSS | low polyreactivity |

— the nanobody polyreactivity screen of Harvey et al. (2022)
